Source: publication PMC9780360, “A conformation-specific nanobody targeting the nicotinamide mononucleotide-activated state of SARM1” (Nature Communications, 2022)

T1: dtSARM1, the truncated form of SARM1 without the N-terminal mitochondrial signal, fused with a twin-Strep-tag … (human, UniProt Q6SZW1 28-724)
T1 chain: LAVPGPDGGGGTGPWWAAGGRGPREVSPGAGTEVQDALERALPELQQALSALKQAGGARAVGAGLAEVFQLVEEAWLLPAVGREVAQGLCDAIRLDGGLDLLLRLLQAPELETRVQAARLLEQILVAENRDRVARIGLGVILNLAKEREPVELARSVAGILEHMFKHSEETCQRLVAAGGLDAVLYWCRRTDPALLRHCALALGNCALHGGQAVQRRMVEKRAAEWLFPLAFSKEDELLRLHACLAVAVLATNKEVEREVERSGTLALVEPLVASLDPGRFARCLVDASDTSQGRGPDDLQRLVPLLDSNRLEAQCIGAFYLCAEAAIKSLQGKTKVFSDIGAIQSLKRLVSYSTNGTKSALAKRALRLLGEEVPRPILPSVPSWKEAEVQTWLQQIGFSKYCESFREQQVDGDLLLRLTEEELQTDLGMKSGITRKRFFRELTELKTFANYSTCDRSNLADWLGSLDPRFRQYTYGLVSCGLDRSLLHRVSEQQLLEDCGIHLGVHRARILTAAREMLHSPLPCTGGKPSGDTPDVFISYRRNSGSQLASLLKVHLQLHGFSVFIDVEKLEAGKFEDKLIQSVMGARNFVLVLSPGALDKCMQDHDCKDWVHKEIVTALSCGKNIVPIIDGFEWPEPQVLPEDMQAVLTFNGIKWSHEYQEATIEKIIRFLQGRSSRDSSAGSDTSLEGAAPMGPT

B1: dtSARM1, the truncated form of SARM1 without the N-terminal mitochondrial signal, fused with a twin-Strep-tag and a Flag-tag attached to the N-terminus (enzyme, human, UniProt Q6SZW1 28-724, looked up)
chain: T1 chain
notes: also called recombinant SARM1; SARM1^NMN (loaded with NMN); source: Expi293F stably expressing dtSARM1 (lentiviral); in lysate, or purified (StrepTactin resin, Superdex 200 gel filtration); not shown: twin-Strep, N-terminal, kept; Flag, N-terminal, kept
B2: Nanobody C6 (VHH)
VHH: AVQLVESGGGLVQPGGSLRLSCAASVSISRIYVMAWYRQAPGKQREVVAVIRYDGTTNYPDSVKGRFTISRDNAKNTVYLQMNSLKPEDTAVYYCNANVETWGQGTQVTVSS
notes: Subcloned into pET22b; alpaca nanobody from an immune phage display library; also called Nb-C6; source: E. coli C43(DE3), purified (Ni-Excel resin, HiTrap Q)

Columns and labels:
[1] = biological target: the molecule itself; experiment: cryo-EM structure; 3 mg/mL dtSARM1 with 100 uM NMN in 100 mM Tris pH 8.0, 150 mM NaCl, 1 mM EDTA on ice for 10 min, then Nb-C6 at 1:1 molar ratio, 30 min on ice
[2] = biological target: T1, dtSARM1, the truncated form of SARM1 …; experiment: SPR; 100 uM NMN, two-state fit kd2
[3] = biological target: T1, dtSARM1, the truncated form of SARM1 …; experiment: SPR; 100 uM NMN, two-state fit kd1
[4] = biological target: Nanobody C6 (alpaca); experiment: cryo-EM structure; 3 mg/mL dtSARM1 with 100 uM NMN in 100 mM Tris pH 8.0, 150 mM NaCl, 1 mM EDTA on ice for 10 min, then Nb-C6 at 1:1 molar ratio, 30 min on ice
[5] = biological target: T2, dtSARM1, the truncated form of SARM1 without the N-terminal mitochondrial signal, fused with a twin-Strep-tag … (human, UniProt Q6SZW1); experiment: as above; settings: both partners purified
T2 construct: also called recombinant SARM1; SARM1^NMN (loaded with NMN); source: Expi293F stably expressing dtSARM1 (lentiviral); in lysate, or purified (StrepTactin resin, Superdex 200 gel filtration); not shown: twin-Strep, N-terminal, kept; Flag, N-terminal, kept

[6] = biological target: T2, dtSARM1, the truncated form of SARM1 …; experiment: SPR; BIAcore 8K; dtSARM1 captured (about 500 RU) on a CM5 chip coated with Strep-Tactin XT; Nb-C6 1.56-400 nM in NMN/HBS-EP (100 uM NMN, 10 mM HEPES, 150 mM NaCl, 1 mg/mL BSA, 3 mM EDTA, 0.05% P20); 360 s association, 540 s dissociation; two-state kinetics model; settings: both partners purified

Binder	stoichiometry N [1]	koff [2] [s⁻¹]	koff [3] [s⁻¹]	stoichiometry N [4]	stoichiometry N [5]	Kd [6] [nM]
B1	8	–	–	–	–	–
B2	–	0.000601	0.0209	2	1	~25
